In the supplement of paper PMC7877785:
± gives the uncertainty stated by the source.

Test: self-splicing fitness, log relative to wild type (ln ratio); higher = more splicing; Tetrahymena group I intron in knt gene, E. coli kanamycin selection, DiMSum; sequences stand for … in CUCUCU…GGAGGGAAAAGUUAUCAGGCAUGCACCUGGUAGCUAGUCUUUAAACCAAUAGAUUGCAUCGGUUUAAAAGGCAAGACCGUCAAAUUGCGGGAAAGGGGUCAACAGCCGUUCAGUACCAAGUCUCAGGGGAAACUUUGAGAUGGCCUUGCAAAGGGUAUGGUAAUAAGCUGACGGACAUGGUCCUAACCACGCAGCCAAGUCCUAAGUCAACAGAUCUUCUGUUGAUAUGGAUGCAGUUCACAGACUAAAUGUCGGUCGGGGAAGAUGUAUUCUUCUCAUAAGAUAUAGUCGGACCUCUCCUUAAUGGGAGCUAGCGGAUGAAGUGAUGCAACACUGGAGCCGCUGGGAACUAAUUUGUAUGCGAAAGUAUAUUGAUUAGUUUUGGAGUACUCGUGGUCG
Summary of the method: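 Pooled colonies went to amplicon sequencing on an Illumina HiSeq 2500 after six replicate transformations. The plates were LB agar with 100 μg/mL carbenicillin, 50 μM IPTG and 0.2% rhamnose, with or without 25 μg/mL kanamycin, incubated overnight at 37°C or 30°C. The E. coli BL21(DE3) library had all eight P1ex-region intron nucleotides randomised, the intron placed in the knt kanamycin-resistance gene on pET-22b(+). DiMSum fitness is the error-weighted combination of replicate fold changes, kanamycin against none, normalised to wild type.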

Sequence | self-splicing fitness (ln) (30 °C) | self-splicing fitness (ln) (37 °C)
GGACAGCAAUAUUACGGUAU | -0.41 ± 0.066 | -0.343 ± 0.09
CCACAGCAAUAUUACGGGAC | -3.78 ± 0.33 | -2.26 ± 0.2
UUGUAGCAAUAUUACGAUCA | -0.608 ± 0.19 | -0.00925 ± 0.14
AGUAAGCAAUAUUACGCGAC | -3.46 ± 0.23 | -2.63 ± 0.25
CACAAGCAAUAUUACGGUGG | -1.99 ± 0.05 | -1.06 ± 0.062
GAGAAGCAAUAUUACGACAG | -2.31 ± 0.19 | -3.09 ± 0.4
AAACAGCAAUAUUACGGAGA | -2.87 ± 0.15 | -2.57 ± 0.15
CGCAAGCAAUAUUACGGUUU | -2.95 ± 0.17 | -2.53 ± 0.18
AGUAAGCAAUAUUACGCAUA | -2.31 ± 0.25 | -1.38 ± 0.15
CCCGAGCAAUAUUACGGACA | -2.72 ± 0.16 | -1.19 ± 0.12
CCCCAGCAAUAUUACGCGAC | -3.37 ± 0.21 | -2.49 ± 0.25
AUUAAGCAAUAUUACGGUGU | -2.11 ± 0.088 | -0.653 ± 0.11
UGAUAGCAAUAUUACGUUAG | -1.92 ± 0.1 | -1.57 ± 0.15
CAGGAGCAAUAUUACGUUAG | -1.45 ± 0.084 | -0.918 ± 0.12
GCUGAGCAAUAUUACGGGAA | -4.56 ± 0.42 | -2.02 ± 0.21
UACGAGCAAUAUUACGACGG | -2.13 ± 0.15 | 0.000849 ± 0.18
AUCCAGCAAUAUUACGUCCC | -0.894 ± 0.22 | -1.1 ± 0.28
GGCAAGCAAUAUUACGUCCA | -1.83 ± 0.22 | -0.175 ± 0.18
ACGGAGCAAUAUUACGGCGU | -2.38 ± 0.2 | -1.48 ± 0.19

Sequence | self-splicing fitness (ln) (30 °C) | self-splicing fitness (ln) (37 °C)
GCAAAGCAAUAUUACGUAGA | -1.64 ± 0.074 | -1.13 ± 0.095
CUAAAGCAAUAUUACGAAAC | -3.29 ± 0.45 | -2.67 ± 0.41
GGCUAGCAAUAUUACGUCAG | -2.81 ± 0.45 | –
UGGUAGCAAUAUUACGAACU | -0.279 ± 0.12 | 0.0176 ± 0.18
UGUGAGCAAUAUUACGCUUA | -2.52 ± 0.27 | -2.85 ± 0.27
GUUCAGCAAUAUUACGUUAG | -1.3 ± 0.077 | -0.731 ± 0.11
UGGAAGCAAUAUUACGGGCC | – | -1.27 ± 0.34
UGUGAGCAAUAUUACGAUCG | -1.36 ± 0.1 | 0.456 ± 0.17
AUUGAGCAAUAUUACGGACA | -2.68 ± 0.31 | –
GAUUAGCAAUAUUACGACAG | -3.57 ± 0.29 | -1.1 ± 0.23
AAGCAGCAAUAUUACGACGA | -0.888 ± 0.089 | -0.307 ± 0.094
AUGAAGCAAUAUUACGAUUC | -2.23 ± 0.1 | -1.33 ± 0.14
UCGCAGCAAUAUUACGGGGU | -3.73 ± 0.17 | -2.72 ± 0.18
AUUAAGCAAUAUUACGGCGU | -0.179 ± 0.073 | 0.712 ± 0.097
UUCAAGCAAUAUUACGGUGG | -1.54 ± 0.12 | -0.439 ± 0.13
GUGCAGCAAUAUUACGUGAA | -0.187 ± 0.1 | -1.19 ± 0.14
CAACAGCAAUAUUACGGGGU | -4.57 ± 0.23 | -2.79 ± 0.15
UGCGAGCAAUAUUACGUGUC | -4.36 ± 0.33 | -2.01 ± 0.26
ACGCAGCAAUAUUACGUUUU | -3.43 ± 0.12 | -2.11 ± 0.11
